Assay results published in patent US20210332136A1.

Target: human PD-L1 on RT4 human bladder cancer cells (human) (UniProt Q9NZQ7)
Assay: cell-based or functional assay

human PD-L1 on RT4 human bladder cancer cells (human), sequence (Q9NZQ7 19-290): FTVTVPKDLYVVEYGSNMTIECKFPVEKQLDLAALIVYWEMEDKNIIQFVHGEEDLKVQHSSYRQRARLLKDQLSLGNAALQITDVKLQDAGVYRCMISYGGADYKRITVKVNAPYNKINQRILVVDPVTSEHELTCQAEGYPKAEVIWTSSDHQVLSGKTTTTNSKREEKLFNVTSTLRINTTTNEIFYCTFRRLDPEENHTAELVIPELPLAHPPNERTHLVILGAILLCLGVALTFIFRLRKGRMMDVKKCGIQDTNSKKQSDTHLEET

In the case of atezolizumab (antibody), the viability of RT4 cells treated in vitro with rabusertib (Chk1 inhibitor) plus atezolizumab is reported as 100%.
